Measurements as given in patent publication US20230279079A1 (CHANG GUNG MEMORIAL HOSPITAL LINKOU, published 2023).
Numbering of substitutions follows the chain as printed.

B1: EW 4C (antibody, V domains shown)
VH: EVQLVESGPGLVKPSETLSLTCSVSADSFKKGYYWGWIRQPPGKGLESIVNSFDSGTTRYNPSLWGRATVSDMSKWHFSLKLTSVTAADTAVYYCVRGTYGSGLHWGQGILVTVSS
VL: QTVVTQEPSLTVSPGGTVTLTCGSSVGTVASGHYPYWVQQKPGQAPRTLIYDTDNKQSWTPARFSGSLLGGKAALTLSGAQPEDEADYYCFLSHNDAWVFGGGTKLTVL
B2: EY 2A (antibody, V domains shown)
VH: QVQLVESGAEVTKPGDSLIISCKGSGYAFTQYWIGWVRQKPGKGLEWMAMVYPDSSAVFAGGASGVRYRPPFQGQVTISADTSVNTAYLQWDSLKASDTAMYYCVRQERGSNTWYAGNSWGQGTLVTVSS
VL: DIVMTQSPLSLPVSPGEPASISCRSSQSLLHTDAYNYLDWYLQKPGQSPQLLIYLGSTRASGVPDRFSGSGSGTDFTLKISSVKAEDVGVYYCMQALQTPGTFGQGTKLEIK
B3: EY 3B (antibody, V domains shown)
VH: B2 VH with Q1E, D16E, S129F
VL: B2 VL with D1E, M4L, L109V, K112R
B4: FB 1E (antibody, V domains shown)
VH: EVQLVESGAEVKKPGESLKISCQGSGYRFNSYWIAWVRQMPGKGLEWMGSIFPTDSDIRYNPSFQGQVTISADKSISIAYLQWSSLKASDTAIYYCARHWASMVRGVIRASHYYGMDVWGQGTTVTVSS
VL: QSVLTQPPSASGSPGQSVTISCSGASSDIGDYNYVSWYQQLPGKAPKLLIYEVTKRPSGVPDRFSGSKSGNTASLTVSGLQADDEADYYCSSYAFGGSDIRVFGGGTKLAVL
B5: FJ 4E (antibody, V domains shown)
VH: QVQLVESGPGLVKPSETLSLTCSVSGGSISSGTYYWSWIRQQPGKGLEWIGYIYNTGRPYYNPFLKSRITISVDSSKNQFSLKLTSVTAADTAVYYCARDEYDSSDSGIQGHWFDPWGQGTLVTVSS
VL: AIRMTQSPSSLSASVGDRVTITCRTSQNINSFLNWYQQKPGKGPNLLIYGAFTLQSGVPSRFSGSGSGTDFTLTISSLQPEDFATYFCQQSYSTPWTFGQGTKVEIK
B6: EW 9C (antibody, V domains shown)
VH: EVQLVESGGGVVQPGASLRLSCVASGFTFNNFGFHWVRQAPGKGLEWLAVISYEGSKTYYAESLKGRFTISRDTSKNTVYLQMNSLRAEDTAVYYCARATSIFWFGEGRNWFDPWGQGTMVTVSS
VL: EIVLTQSPGTVSLSAGERATLSCRASQNVGTDLAWYVQRPGQAPRLLIYDTSNKATGIPARFSGRGSGTDFTLTIDSLEPEDFAVYYCQQRSNWPLTFGGGTKVEIR
B7: EW 9C-1 (antibody, V domains shown)
VH: B6 VH with T119A, M120L
VL: B6 VL with L4M, K54R, R107K
B8: FG 7A (antibody, V domains shown)
VH: EVQLVESGGGVVQPGRSLRLSCAASGFTFSSYAMHWVRQAPGKGLEWVAVISYDGSNKYYADSVKGRFTISRDNSKNTLYLQMNSLRAEDTAVYYCARSHSGSYRASLDYWGQGTTVTVSS
VL: not shown
B9: FD 10A (antibody, V domains shown)
VH: EVQLVESGGGLVQPGGSLRLSCAASGFTFSSYWMHWVRQAPGKGLVWVSRINSDGSSTSYADSVKGRFTISRDNAKNTLYLQMNSLRAEDTAVYYCANMAFDIWGQGTMVTVSS
VL: not shown
B10: FM 1A (antibody, V domains shown)
VH: EVQLLESGGGVVQPGRSLRLSCAASGFTFSSYGMHWVRQAPGKGLEWVAVIWYDGSNKYYADSVKGRFTISRDNSKNTLYLQMNSLRAEDTAVYYCAREGAVGATRGFDYWGQGTLVTVSS
VL: SYELTQPPSVSVAPGQTARITCGGNNIGSKSVHWYQQKPGQAPVLVVYDDSDRPSGIPERFSGSNSGNTATLTISRVEAGDEADYYCQVWDSSSDQGVFGGGTKLTVL
B11: FD 5E (antibody, V domains shown)
VH: EVQLVESGGVVVQPGGSLRLSCAASGFTFDDYAMHWVRQAPGKGLEWVSLISWDGGSTYYADSVKGRFTISRDNSKNSLYLQMNSLRAEDTALYYCAKDSVRFRYYYGMDVWGQGTTVTVSS
VL: EIVLTQSPATLSLSPGERATLSCRASQSVSSYLAWYQQKPGQAPRLLIYDASNRATGIPARFSGSGSGTDFTLTISSLEPEDFAVYYCQQRSNWPLTFGPGTKVDIK
B12: EW 9B (antibody, V domains shown)
VH: EVQLVQSGAEVKKPGASVKVSCKASGYTFTSYYMHWVRQAPGQGLEWMGIINPSGGSTSYAQKFQGRVTMTRDTSTSTVYMELSSLRSEDTAVYYCAREDGVVPAANLMISLEDYYYYGMDVWGQGTTVTVSS
VL: B11 VL with P100G
B13: FD 5D (antibody, V domains shown)
VH: EVQLVESGGGLVQPGGSLRLSCAASGFTFSSYSMNWVRQAPGKGLEWVSYISSSSSTIYYADPVKGRFTISRDNAKNSLYLQMNSLRAEDTAVYYCASPGGITAAGTSVLFGYYGMDVWGQGTMVTVSS
VL: not shown
B14: FD 11A (antibody, V domains shown)
VH: EVQLVESGGGVVQPGRSLRLSCAASGFTFSSYGMHWVRQAPGKGLEWVAVIWYDGSNKYYADSVKGRFTISRDNSKNTLYLQMNSLRAEDTAVYYCAKGPDILTGYYNYYYYGMDVWGQGTMVTVSS
VL: QSVLTQPPSVSGAPGQRVTISCTGSSSNIGAGYDVHWYQQLPGTAPKLLIYGNSNRPSGVPDRFSGSKSGTSASLAITGLQAEDEADYYCQSYDSSLSGFYVVFGGGTKLTVL
B15: EY 6A (antibody, V domains shown)
VH: EVQLVESGGGVVQPGRSLRLSCAASAFTFSSYDMHWVRQAPGKGLEWVAVISYDGSNKYYADSVKGRFTISRDNSKNTLYLQMNSLRAEDTAVYYCAKDGGKLWVYYFDYWGQGTTVTVSS
VL: not shown
B16: FI 3A (antibody, V domains shown)
VH: EVQLLESGGGLIQPGGSLRLSCAASGFTVSSNYMSWVRQAPGKGLEWVSVIYSGGSTYYADSVKGRFTISRDNSKNTLYLQMNSLRAEDTAVYYCARDHVRPGMNIWGQGTMVTVSS
VL: not shown
notes: also called FI 03A

Each binder was assayed against T1, SARS-CoV-2 nucleocapsid in fixed and permeabilised SARS-CoV-2 infected cells (SARS-CoV-2, UniProt P0DTC9 1-419) (assay: immunofluorescence assay).
T1 construct: whole, on cells; also called N antigen

Binder	binding result
B1	binds
B2	binds
B3	binds

The binders below were run against T2, SARS-CoV-2 spike receptor binding domain (RBD) (SARS-CoV-2, UniProt P0DTC2 319-541) (assay: ELISA).
T2 construct: also called SARS-CoV-2 RBD

Binder	binding result
B4	no binding
B5	no binding
B6	no binding
B7	no binding
B8	no binding
B9	no binding
B10	no binding
B11	no binding
B12	no binding

The binders below were run against T3, MERS spike extracellular domain (Middle East respiratory syndrome …, UniProt K9N5Q8 18-1296) (assay: ELISA).
T3 construct: extracellular domain

Binder	binding result
B4	binds
B5	binds
B6	binds
B7	binds
B8	no binding
B13	no binding
B9	binds
B10	no binding
B11	no binding
B12	no binding

Each binder was assayed against T4, SARS spike S1 subunit (severe acute respiratory syndrome …, UniProt P59594 14-667) (assay: ELISA).
T4 construct: domain: S1 subunit

Binder	binding result
B4	no binding
B5	binds
B6	no binding
B7	no binding
B8	no binding
B13	no binding
B9	binds
B10	no binding
B11	no binding
B12	no binding

Each binder was assayed against T5, SARS-CoV-2 spike S1 subunit (SARS-CoV-2, UniProt P0DTC2 16-685) (assay: ELISA).
T5 construct: domain: S1 subunit

Binder	binding result
B4	no binding
B5	no binding
B6	no binding
B7	no binding
B8	no binding
B9	no binding
B10	no binding

These binders were tested against T6, SARS-CoV-2 spike extracellular domain (SARS-CoV-2, UniProt P0DTC2 14-1213) (assay: ELISA).
T6 construct: extracellular domain; also called spike protein of SARS-CoV-2

Binder	binding result
B11	binds
B12	binds

The binders below were run against T7, Human coronavirus OC43 spike extracellular domain (human coronavirus OC43, UniProt P36334 14-1297) (assay: ELISA).
T7 construct: extracellular domain

Binder	binding result
B6	binds
B7	binds
B8	no binding
B13	no binding
B9	binds
B10	no binding
B11	no binding
B12	no binding

Each binder was assayed against T8, SARS-CoV-2 spike S2 subunit (SARS-CoV-2, UniProt P0DTC2 686-1213) (assay: ELISA).
T8 construct: domain: S2 subunit

Binder	binding result
B14	no binding
B13	no binding
B15	no binding
B11	no binding
B12	no binding
B16	no binding

These binders were tested against T9, SARS-CoV-2 nucleocapsid protein (SARS-CoV-2, UniProt P0DTC9 1-419) (assay: ELISA on recombinant protein).
T9 construct: also called N protein

Binder	binding result
B1	binds
B2	binds
B3	binds

Each binder was assayed against T10, spike glycoprotein of wild type SARS-CoV-2 virus (SARS-CoV-2, UniProt P0DTC2 14-1273) (assay: cell-based or functional assay).

Binder	Neutralization by FMNT EC50	Neutralization by PRNT EC50
B14	3.68 nM	0.05 nM
B4	–	36 nM
B5	–	75.3 nM
B6	–	133 nM
B7	–	133 nM
B8	–	133 nM
B13	–	133 nM
B15	22.5 nM	133 nM
B9	–	111 nM
B10	–	133 nM
B16	0.51 nM	8.67 nM

Biological target: T10, spike glycoprotein of wild type …
Assay: cell-based or functional assay
Remark: another data set of the same source

Binder	Ct value of culture supernatant, after 5 days of incubation (virus control 13.0)	fold reduction of virus
B14	23 Ct	~1024 fold
B6	22.7 Ct	~832 fold
B13	18.8 Ct	~56 fold
B15	22.7 Ct	–
B16	–	~10100 fold
